Laboratory results from patent US9217013B2, “Treatment of amyloidoses using myelin basic protein and fragments thereof” (The Research Foundation for the State University of New York, priority 2008, dated 2015).

Experiments:
Dutch/Iowa Aβ40 (Aβ40DI) = Dutch/Iowa Aβ40 (Aβ40DI) (Homo sapiens, UniProt P05067, D694N/E693Q); assay: TEM and single-touch AFM of Aβ40DI fibril formation; type: biochemical
Protocol: FIG. 18 Inhibition of Aβ40DI fibril formation by MBP as assessed by TEM and single-touch AFM analyses. Aβ40DI peptides at a concentration of 12.5 μM in PBS in the absence or presence of 1.56 μM MBP. Samples were imaged at 6 h by TEM (A and B) and at 3 h by single-touch AFM (D and E). Aliquots of 1.56 μM MBP alone were imaged by TEM (C) and by AFM (F).
For electron microscopy, a 20 μl aliquot of the sample mixture was deposited onto a Formvar-coated copper mesh grid. The sample was allowed to stand for 60 s, and excess solution was wicked away. The samples were negatively stained with 2% (w/v) uranyl acetate. The excess stain was wicked away, and the sample was allowed to dry. The samples were viewed with an FEI Tecnai 12 BioTwin transmission electron microscope, and digital images were taken with an Advanced Microscopy Techniques camera.
Atomic force microscopy (“AFM”) was carried out using a lifeScan controller (LifeAFM Inc., Port Jefferson, N.Y.) interfaced with a MultiMode microscope (Digital Instruments, Santa Barbara, Calif.) fitted with an E seamier. With this instrument configuration, only a single contact of the AFM probe is made with the sample per pixel. Computer control of the cantilever position and angle during approach allows for detection of the sample height with minimum cantilever deflection, allowing for a minimum compressive force (30-100 piconewtons/nm) applied to the sample. AFM samples were prepared by adsorbing 20 μl of sample mixture to freshly cleaved ruby mica (S & J Trading, Inc., Glen Oaks, N.Y.) for 45 min to 1 h. The samples were rehydrated with ultrapure Milli-Q water (Millipore Corp., Billerica, Mass.) and immediately imaged. Samples were imaged using SuperSharpSilicon probes (SSS-CONT, NANOSENSORS, Neuchatel, Switzerland) that were modified for magnetic retraction by attaching samarium cobalt particles. The effective diameter of the SuperSharpSilicon probes was 4±1 nm at a height of 2 nm. Data analysis and graphics were performed using Interactive Display Language Version 5.0 (Research Systems, Inc., Boulder, Colo.). In the Z-scale bars, numbers in each color square indicate the Z-value at the middle of the range for that color.

Aβ40WT = Aβ40WT (Homo sapiens, UniProt P05067); assay: Affinity chromatography of human brain homogenate on Aβ40WT column; type: binding
Protocol: For some embodiments of the invention, it may be advantageous to work with purified isolates of mutant and wild-type forms of Aβ. The affinity chromatography method used in the development of embodiments of the instant invention to obtain such isolates is exemplary: To prepare affinity resins, biotinylated wild-type Aβ40 peptide (Aβ40WT) and Aβ40DI were each redissolved in 20 mM NaHCO3 buffer (pH 8.5) and applied to ImmunoPure immobilized streptavidin beads (Pierce) following the manufacturer's instructions. Immobilized ligands were cross-linked with 2 mM bis(sulfosuccinimidyl) suberate (Pierce) for 30 min with rocking at room temperature in 20 mM NaHCO3 (pH 8.5). Crosslinking reactions were stopped by the addition of 1 M Tris-HCl (pH 7.4) to a final concentration of 20 mM. Homogenates of normal human brain frontal cortex (which may obtained as biopsies) were prepared in Tris-buffered saline (50 mM Tris-HCl and 200 mM NaCl (pH 7.4)) containing complete protease inhibitor cocktail (Roche). Homogenates were centrifuged at 12,000×g for 30 min, and supernatants were loaded onto Tris-buffered saline-equilibrated affinity columns (0.8×4 cm) under gravity flow. […] Fractions were analyzed by SDS-PAGE on 10-20% Tris/glycine gradient gels. […]

[1] = molecular target: Dutch/Iowa CAA mutant Aβ40 (Aβ40DI) (Homo sapiens, UniProt P05067, D694N/E693Q); assay: Surface plasmon resonance binding to immobilized Dutch/Iowa Aβ40
Protocol: All runs were performed on a Biacore 2000 instrument using 10 mM HEPES (pH 7.4), 150 mM NaCl, 3 mM EDTA, and 0.005% (v/v) Tween 20 as running buffer and diluent. Streptavidiri was conjugated to the surface of three flow cells of a CM5 chip at 10 μl/min using amine coupling chemistry to a final average response level of 1890.2 response units. N-terminally biotinylated Aβ peptides were resuspended in Me2SO to 2.5 mM and serially diluted to 13 nM immediately before application. Biotinylated Aβ40WT and Aβ40DI were bound to individual flow cells at 10 μl/min to achieve an average relative response level of 157.1 response units, leaving flow cell 1 as reference. […] The resultant Rmax of these surfaces was ˜700 response units with MBP as analyte. Purified MBP was passed over all four flow cells at 5, 10, 25, 50, and 100 nM at a flow rate of 30 μl/min for kinetic measurements. […] Surfaces were regenerated with 0.2 M glycine (pH 2.0) and 150 mM NaCl between runs. The resulting sensorgrams were analyzed by BIAanalysis software. Triplicate concentration series were used for each surface.
Using recombinant methodology to express and purify regions of the 18.5 kDa human MBP protein and test their abilities to bind Aβ and inhibit fibrillogenesis, cDNAs were prepared for the following regions of MBP shown in FIG. 3. The cDNAs for MBP fragments were cloned into pTYB11 plasmids containing an ampr gene and transformed into competent E. coli BL21 DE3 cells. Expression of cDNAs in this vector results in a fusion protein containing a chitin binding domain (CBD) as well as a self-cleavable intein protein from S. cerevisiae. CBD-Intein-MBP fusion proteins were captured on chitin beads from the resulting cell lysates. MBP protein fragments were eluted by inducing the cleavage between the C-terminus of the intein and the N-terminus of MBP by exposure to dithiothreitol. […] MBP was further purified by cation exchange chromatography on CM52 resin, resulting in a >95% pure protein preparations. Each of the four MBP fragments were tested for binding to Dutch/Iowa Aβ40 and wild-type Aβ42 by surface plasmon resonance (FIG. 4).

[2] = in the presence of MBP at 3 hours

B1: myelin basic protein (protein)
chain: ASQKRPSQRHGSKYLATASTMDHARHGFLPRHRDTGILDSIGRFFGGDRGAPKRGSGKDSHHPARTAHYGSLPQKSHGRTQDENPVVHFFKNIVTPRTPPPSQGKGRGLSLSRFSWGAEGQRPGFGYGGRASDYKSAHKGFKGVDAQGTLSKIFKLGGRDSRSGSPMARR
notes: myelin basic protein, major form about 18.5 Kd (170 residues); purified protein
Dutch/Iowa Aβ40 (Aβ40DI); 1.56 μM MBP alone
  aggregation of MBP alone (TEM and AFM): does not aggregate significantly
Dutch/Iowa Aβ40 (Aβ40DI); 6 hours, sub-stoichiometric MBP
  Aβ40DI fibril formation by TEM: no evidence of fibril formation
Dutch/Iowa Aβ40 (Aβ40DI); [2]
  heights of Aβ40DI oligomers and protofibrils by AFM: ≈ 2 nm
  lengths of Aβ40DI oligomers and protofibrils by AFM: < 200 nm
Aβ40WT
  capture on Aβ40WT affinity column: not captured
[1]; SPR
  binding to Dutch/Iowa CAA mutant Aβ relative to wild-type Aβ: bound more tightly
[1]; surface plasmon resonance
  Kd: 16.9 nM
